Biological target: NB88
Test: SPR

- Kd: 3.9 nM
B1: CaSR ECD (extracellular domain of human calcium-sensing receptor) (domain or fragment)
chain: YGPDQRAQKKGDIILGGLFPIHFGVAAKDQDLKSRPESVECIRYNFRGFRWLQAMIFAIEEINSSPALLPNLTLGYRIFDTCNTVSKALEATLSFVAQNKIDSLNLDEFCNCSEHIPSTIAVVGATGSGVSTAVANLLGLFYIPQVSYASSSRLLSNKNQFKSFLRTIPNDEHQATAMADIIEYFRWNWVGTIAADDDYGRPGIEKFREEAEERDICIDFSELISQYSDEEEIQHVVEVIQNSTAKVIVVFSSGPDLEPLIKEIVRRNITGKIWLASEAWASSSLIAMPQYFHVVGGTIGFALKAGQIPGFREFLKKVHPRKSVHNGFAKEFWEETFNCHLQEGAKGPLPVDTFLRGHEESGDRFSNSSTAFRPLCTGDENISSVETPYIDYTHLRISYNVYLAVYSIAHALQDIYTCLPGRGLFTNGSCADIKKVEAWQVLKHLRHLNFTNNMGEQVTFDECGDLVGNYSIINWHLSPEDGSIVFKEVGYYNVYAKKGERLFINEEKILWSGFSREVPFSNCSRDCLAGTRKGIIEGEPTCCFECVECPDGEYSDETDASACNKCPDDFWSNENHTSCIAKEIEFLS
